Values of other authors, collected in PMC6776250.

Target: RNase Y (Bacillus subtilis) (UniProt O31774)
Assay: SPR

UniProt O31774, sequence (O31774 whole entry): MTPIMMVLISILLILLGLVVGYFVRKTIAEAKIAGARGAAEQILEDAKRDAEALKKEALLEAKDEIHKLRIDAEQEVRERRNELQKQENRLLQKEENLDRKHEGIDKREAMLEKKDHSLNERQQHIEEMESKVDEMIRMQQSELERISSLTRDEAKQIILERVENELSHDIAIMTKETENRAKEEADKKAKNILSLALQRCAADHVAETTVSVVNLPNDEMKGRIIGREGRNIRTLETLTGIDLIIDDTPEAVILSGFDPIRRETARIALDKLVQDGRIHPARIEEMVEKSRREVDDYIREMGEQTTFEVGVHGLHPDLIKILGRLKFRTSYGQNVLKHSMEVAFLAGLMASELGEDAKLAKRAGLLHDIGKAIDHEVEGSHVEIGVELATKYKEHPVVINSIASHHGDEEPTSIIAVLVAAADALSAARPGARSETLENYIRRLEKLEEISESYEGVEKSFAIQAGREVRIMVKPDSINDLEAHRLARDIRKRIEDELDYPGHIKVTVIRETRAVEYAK

Kd: 5 nM
Substance: PNPase (from UniProt P50849)
